Results on two substances are retold here after patent publication US20210238298A1.

This assay concerns the target CD86 mutant 1040 conjugated to an anti-CD40 antibody as part of a bispecific molecule (human). Description: inhibition ELISA: CD86 mutant 1040 on an anti-CD40 antibody pre-incubated with the soluble CTLA-4 in a dilution series, mixture added to coated human CTLA-4 (the competitor).

CD86 mutant 1040 conjugated to an anti-CD40 antibody as part of a bispecific molecule (human), sequence (chain, as listed by the source limits assumed): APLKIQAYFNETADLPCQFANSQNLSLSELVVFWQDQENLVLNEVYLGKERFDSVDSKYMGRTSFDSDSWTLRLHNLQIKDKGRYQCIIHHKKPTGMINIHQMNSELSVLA

Consider “soluble murine CTLA-4 (R&D systems) (from UniProt P09793 36-162) (receptor)”, for which the IC50 (read off the curve) was 0.8 µg/mL. “CTLA4-Fc (Fitzgerald, #30R-CD152) (from UniProt P16410 38-152) (Fc fusion)”: the IC50 (read off the curve) is 1 µg/mL.
